Test results reported in paper PMC5716544.

Target: functional streptavidin subunit with N-terminal cysteine and His-tag (Streptomyces avidinii) (UniProt P22629)
Assay: refolding of mixed subunits, purification via the His-tag of one subunit, SDS-PAGE of heated and unheated samples; solubilized inclusion bodies mixed at a 1:10 ratio before refolding; tetramer purified via the His-tag of the cysteine-bearing subunit; gel of samples heated 5 min to 95°C (monomers) and of unheated samples (tetramers), room temperature

stoichiometry N: 3
Substance: functional SA subunit devoid of cysteine and His-tag (domain or fragment)
